Laboratory results published in patent US20180155451A1 (published 2018).

B1: GpH7-B3 variant L234_15Y/GpL16-k0 (antibody, human IgG1, kappa)
heavy: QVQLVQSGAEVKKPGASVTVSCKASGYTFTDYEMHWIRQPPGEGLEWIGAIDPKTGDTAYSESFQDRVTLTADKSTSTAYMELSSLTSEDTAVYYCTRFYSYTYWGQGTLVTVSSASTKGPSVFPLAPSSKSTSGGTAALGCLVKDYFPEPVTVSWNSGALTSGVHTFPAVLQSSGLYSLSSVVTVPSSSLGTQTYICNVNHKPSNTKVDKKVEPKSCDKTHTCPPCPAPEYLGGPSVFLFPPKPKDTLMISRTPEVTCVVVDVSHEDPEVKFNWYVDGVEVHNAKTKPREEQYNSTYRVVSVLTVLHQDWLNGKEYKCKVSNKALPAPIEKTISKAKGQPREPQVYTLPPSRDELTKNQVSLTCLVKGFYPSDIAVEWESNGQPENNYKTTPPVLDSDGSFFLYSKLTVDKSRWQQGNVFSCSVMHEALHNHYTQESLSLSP
light: DIVMTQSPLSLPVTPGEPASISCQASESLVHSNRNTYLHWYLQKPGQSPQLLIYKVSNRFSGVPDRFSGSGSGTDFTLKISRVEAEDVGVYYCSQNTHVPPTFGQGTKVEIERTVAAPSVFIFPPSDEQLKSGTASVVCLLNNFYPREAKVQWKVDNALQSGNSQESVTEQDSKDSTYSLSSTLTLSKADYEKHKVYACEVTHQGLSSPVTKSFNRGEC
notes: homodimerized; also called Ho Ab L234_15Y; GpH7-B3-01-15Y/GpL16-k0
B2: GpH7-B3 variant P271_04F/GpL16-k0 (antibody, human IgG1, kappa)
heavy: not shown
light: B1 light
notes: homodimerized; also called Ho Ab P271_04F
B3: GpH7-B3 variant Q295_02A/GpL16-k0 (antibody, human IgG1, kappa)
heavy: not shown
light: B1 light
notes: homodimerized; also called Ho Ab Q295_02A
B4: GpH7-B3 variant L328_20W/GpL16-k0 (antibody, human IgG1, kappa)
heavy: not shown
light: B1 light
notes: homodimerized; also called Ho Ab L328_20W
B5: GpH7-B3 variant P238_10E/GpL16-k0 (antibody, human IgG1, kappa)
heavy: not shown
light: B1 light
notes: homodimerized; also called Ho Ab P238_10E
B6: GpH7-B3 variant P271_06M/GpL16-k0 (antibody, human IgG1, kappa)
heavy: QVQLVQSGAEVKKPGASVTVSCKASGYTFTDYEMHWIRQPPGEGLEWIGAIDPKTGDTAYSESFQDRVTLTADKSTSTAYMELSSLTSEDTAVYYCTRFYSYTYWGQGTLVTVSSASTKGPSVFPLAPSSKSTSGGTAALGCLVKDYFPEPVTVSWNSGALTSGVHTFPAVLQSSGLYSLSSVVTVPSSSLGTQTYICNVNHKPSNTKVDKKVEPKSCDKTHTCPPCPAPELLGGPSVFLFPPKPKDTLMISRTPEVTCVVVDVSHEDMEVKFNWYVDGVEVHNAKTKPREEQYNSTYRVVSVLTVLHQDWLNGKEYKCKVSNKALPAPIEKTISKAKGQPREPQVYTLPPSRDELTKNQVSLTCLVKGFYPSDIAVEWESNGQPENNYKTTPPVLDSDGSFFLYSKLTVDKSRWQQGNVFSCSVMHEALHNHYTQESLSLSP
light: B1 light
notes: homodimerized; also called Ho Ab P271_06M
B7: GpH7-B3 variant P238_03V/GpL16-k0 (antibody, human IgG1, kappa)
heavy: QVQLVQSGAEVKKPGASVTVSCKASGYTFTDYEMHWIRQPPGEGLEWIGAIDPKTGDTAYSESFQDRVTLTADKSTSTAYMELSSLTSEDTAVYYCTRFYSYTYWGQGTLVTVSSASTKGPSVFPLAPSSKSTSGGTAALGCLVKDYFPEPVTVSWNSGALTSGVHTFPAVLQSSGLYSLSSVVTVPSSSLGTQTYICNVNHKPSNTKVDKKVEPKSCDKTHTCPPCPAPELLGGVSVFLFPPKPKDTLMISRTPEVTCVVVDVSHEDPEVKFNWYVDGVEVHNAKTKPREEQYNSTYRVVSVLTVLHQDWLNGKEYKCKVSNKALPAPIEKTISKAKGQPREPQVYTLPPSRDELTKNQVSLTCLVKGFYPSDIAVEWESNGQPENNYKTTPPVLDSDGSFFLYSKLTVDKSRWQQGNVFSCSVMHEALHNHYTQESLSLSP
light: B1 light
notes: homodimerized; also called Ho Ab P238_03V
B8: GpH7-B3 variant P271_12R/GpL16-k0 (antibody, human IgG1, kappa)
heavy: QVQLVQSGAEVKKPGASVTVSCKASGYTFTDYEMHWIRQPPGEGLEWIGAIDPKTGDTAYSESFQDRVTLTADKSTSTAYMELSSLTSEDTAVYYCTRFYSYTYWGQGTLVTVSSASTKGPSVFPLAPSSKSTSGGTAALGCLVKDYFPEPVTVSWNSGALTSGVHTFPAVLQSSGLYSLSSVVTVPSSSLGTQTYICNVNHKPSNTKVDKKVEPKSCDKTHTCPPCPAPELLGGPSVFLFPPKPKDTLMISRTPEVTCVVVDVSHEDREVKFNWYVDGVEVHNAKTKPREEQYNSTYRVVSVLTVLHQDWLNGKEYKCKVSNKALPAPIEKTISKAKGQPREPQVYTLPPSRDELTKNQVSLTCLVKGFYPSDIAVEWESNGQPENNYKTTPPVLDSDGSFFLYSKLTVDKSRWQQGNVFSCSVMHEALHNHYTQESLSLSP
light: B1 light
notes: homodimerized; also called Ho Ab P271_12R
B9: GpH7-B3 variant P238_08L/GpL16-k0 (antibody, human IgG1, kappa)
heavy: not shown
light: B1 light
notes: homodimerized; also called Ho Ab P238_08L
B10: GpH7-B3 variant L328_19Q/GpL16-k0 (antibody, human IgG1, kappa)
heavy: not shown
light: B1 light
notes: homodimerized; also called Ho Ab L328_19Q
B11: GpH7-B3 variant P271_03V/GpL16-k0 (antibody, human IgG1, kappa)
heavy: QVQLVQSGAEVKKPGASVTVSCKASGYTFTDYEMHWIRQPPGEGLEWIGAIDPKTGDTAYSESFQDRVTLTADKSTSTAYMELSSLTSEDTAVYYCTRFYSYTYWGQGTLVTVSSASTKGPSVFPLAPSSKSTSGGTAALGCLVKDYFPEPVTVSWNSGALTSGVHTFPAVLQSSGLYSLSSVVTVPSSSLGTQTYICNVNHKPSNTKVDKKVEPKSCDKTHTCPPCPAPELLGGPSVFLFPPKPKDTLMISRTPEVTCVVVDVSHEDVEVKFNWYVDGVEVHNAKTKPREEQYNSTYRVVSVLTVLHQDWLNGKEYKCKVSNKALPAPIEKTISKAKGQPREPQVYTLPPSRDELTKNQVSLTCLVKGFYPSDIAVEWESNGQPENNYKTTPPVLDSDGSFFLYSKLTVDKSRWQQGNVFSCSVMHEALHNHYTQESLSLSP
light: B1 light
notes: homodimerized; also called Ho Ab P271_03V
B12: GpH7-B3 variant P238_04F/GpL16-k0 (antibody, human IgG1, kappa)
heavy: not shown
light: B1 light
notes: homodimerized; also called Ho Ab P238_04F
B13: GpH7-B3 variant P271_07I/GpL16-k0 (antibody, human IgG1, kappa)
heavy: not shown
light: B1 light
notes: homodimerized; also called Ho Ab P271_07I
B14: GpH7-B3 variant P238_15Y/GpL16-k0 (antibody, human IgG1, kappa)
heavy: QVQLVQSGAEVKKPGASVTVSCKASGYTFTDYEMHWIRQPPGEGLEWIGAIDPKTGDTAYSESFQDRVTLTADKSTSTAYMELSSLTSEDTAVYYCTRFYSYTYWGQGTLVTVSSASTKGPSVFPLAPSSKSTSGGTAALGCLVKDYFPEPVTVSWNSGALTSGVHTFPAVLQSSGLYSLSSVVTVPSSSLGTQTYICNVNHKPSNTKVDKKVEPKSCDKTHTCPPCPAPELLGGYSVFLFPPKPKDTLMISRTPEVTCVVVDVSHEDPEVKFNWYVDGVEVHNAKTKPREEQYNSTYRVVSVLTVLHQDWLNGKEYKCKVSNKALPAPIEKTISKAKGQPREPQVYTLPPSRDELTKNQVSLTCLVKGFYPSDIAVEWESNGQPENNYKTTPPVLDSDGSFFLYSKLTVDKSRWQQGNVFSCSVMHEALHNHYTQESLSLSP
light: B1 light
notes: homodimerized; also called Ho Ab P238_15Y
B15: GpH7-B3 variant L328_10E/GpL16-k0 (antibody, human IgG1, kappa)
heavy: not shown
light: B1 light
notes: homodimerized; also called Ho Ab L328_10E
B16: GpH7-B3 variant P271_13S/GpL16-k0 (antibody, human IgG1, kappa)
heavy: not shown
light: B1 light
notes: homodimerized; also called Ho Ab P271_13S
B17: GpH7-B3 variant P271_02A/GpL16-k0 (antibody, human IgG1, kappa)
heavy: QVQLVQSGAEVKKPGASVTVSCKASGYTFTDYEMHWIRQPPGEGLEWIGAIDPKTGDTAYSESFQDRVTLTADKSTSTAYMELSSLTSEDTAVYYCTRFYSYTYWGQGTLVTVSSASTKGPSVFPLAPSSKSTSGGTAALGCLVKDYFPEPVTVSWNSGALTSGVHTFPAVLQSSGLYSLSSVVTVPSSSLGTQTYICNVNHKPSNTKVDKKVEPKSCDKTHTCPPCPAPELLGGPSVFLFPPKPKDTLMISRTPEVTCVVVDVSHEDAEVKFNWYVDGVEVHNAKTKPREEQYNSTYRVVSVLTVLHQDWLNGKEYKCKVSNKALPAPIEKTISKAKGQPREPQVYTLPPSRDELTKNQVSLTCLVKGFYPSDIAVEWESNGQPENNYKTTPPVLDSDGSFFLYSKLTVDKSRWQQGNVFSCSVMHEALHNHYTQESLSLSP
light: B1 light
notes: homodimerized; also called Ho Ab P271_02A
B18: GpH7-B3 variant P271_11K/GpL16-k0 (antibody, human IgG1, kappa)
heavy: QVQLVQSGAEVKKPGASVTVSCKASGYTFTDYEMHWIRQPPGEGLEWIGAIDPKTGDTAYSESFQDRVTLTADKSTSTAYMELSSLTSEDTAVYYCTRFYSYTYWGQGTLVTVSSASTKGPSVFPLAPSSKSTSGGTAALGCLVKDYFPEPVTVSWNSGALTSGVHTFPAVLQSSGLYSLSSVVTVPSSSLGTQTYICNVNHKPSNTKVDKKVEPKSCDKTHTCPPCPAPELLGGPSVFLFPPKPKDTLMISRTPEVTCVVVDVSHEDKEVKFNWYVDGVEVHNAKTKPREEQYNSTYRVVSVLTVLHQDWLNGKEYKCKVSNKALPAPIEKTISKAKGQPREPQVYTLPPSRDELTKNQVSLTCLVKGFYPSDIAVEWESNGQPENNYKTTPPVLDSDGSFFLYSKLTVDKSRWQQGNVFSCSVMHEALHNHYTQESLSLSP
light: B1 light
notes: homodimerized; also called Ho Ab P271_11K
B19: GpH7-B3 variant L328_14T/GpL16-k0 (antibody, human IgG1, kappa)
heavy: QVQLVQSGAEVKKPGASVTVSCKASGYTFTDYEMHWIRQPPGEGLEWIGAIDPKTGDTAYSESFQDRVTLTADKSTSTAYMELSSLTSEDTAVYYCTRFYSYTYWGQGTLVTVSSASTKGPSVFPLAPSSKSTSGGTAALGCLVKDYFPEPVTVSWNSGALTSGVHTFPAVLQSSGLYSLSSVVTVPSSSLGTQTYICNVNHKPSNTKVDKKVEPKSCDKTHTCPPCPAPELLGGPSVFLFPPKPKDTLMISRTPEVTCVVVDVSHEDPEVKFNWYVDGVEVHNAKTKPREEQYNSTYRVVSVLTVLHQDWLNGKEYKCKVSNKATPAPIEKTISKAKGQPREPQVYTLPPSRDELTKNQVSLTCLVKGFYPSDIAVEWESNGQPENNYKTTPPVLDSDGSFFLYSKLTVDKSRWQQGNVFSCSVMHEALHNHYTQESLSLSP
light: B1 light
notes: homodimerized; also called Ho Ab L328_14T
B20: GpH7-B3 variant P238_06M/GpL16-k0 (antibody, human IgG1, kappa)
heavy: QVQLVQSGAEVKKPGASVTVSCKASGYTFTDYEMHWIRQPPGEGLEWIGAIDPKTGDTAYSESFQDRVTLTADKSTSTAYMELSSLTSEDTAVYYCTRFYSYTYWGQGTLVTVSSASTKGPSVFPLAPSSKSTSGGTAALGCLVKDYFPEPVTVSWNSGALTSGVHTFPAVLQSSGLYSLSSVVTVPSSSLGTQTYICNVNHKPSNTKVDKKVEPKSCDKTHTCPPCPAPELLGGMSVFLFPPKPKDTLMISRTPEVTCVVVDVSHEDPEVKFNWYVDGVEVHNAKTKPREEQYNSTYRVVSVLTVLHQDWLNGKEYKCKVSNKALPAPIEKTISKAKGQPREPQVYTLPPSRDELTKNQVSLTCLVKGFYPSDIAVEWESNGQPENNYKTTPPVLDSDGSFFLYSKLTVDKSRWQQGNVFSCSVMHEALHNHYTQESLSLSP
light: B1 light
notes: homodimerized; also called Ho Ab P238_06M
B21: GpH7-B3 variant P271_20W/GpL16-k0 (antibody, human IgG1, kappa)
heavy: not shown
light: B1 light
notes: homodimerized; also called Ho Ab P271_20W
B22: GpH7-B3 variant L328_03V/GpL16-k0 (antibody, human IgG1, kappa)
heavy: not shown
light: B1 light
notes: homodimerized; also called Ho Ab L328_03V
B23: GpH7-A5/GpH7-B3 variant E269_04F/GpL16-k0 (antibody, human IgG1, kappa)
heavy 1: not shown
heavy 2: not shown
light: B1 light
notes: heterodimerized; also called He Ab E269_04F
B24: GpH7-A5/GpH7-B3 variant A327_09D/GpL16-k0 (antibody, human IgG1, kappa)
heavy 1: not shown
heavy 2: not shown
light: B1 light
notes: heterodimerized; also called He Ab A327_09D
B25: GpH7-A5/GpH7-B3 variant E269_13S/GpL16-k0 (antibody, human IgG1, kappa)
heavy 1: not shown
heavy 2: not shown
light: B1 light
notes: heterodimerized; also called He Ab E269_13S
B26: GpH7-A5/GpH7-B3 variant E333_06M/GpL16-k0 (antibody, human IgG1, kappa)
heavy 1: not shown
heavy 2: not shown
light: B1 light
notes: heterodimerized; also called He Ab E333_06M
B27: GpH7-A5/GpH7-B3 variant E333_08L/GpL16-k0 (antibody, human IgG1, kappa)
heavy 1: not shown
heavy 2: not shown
light: B1 light
notes: heterodimerized; also called He Ab E333_08L
B28: GpH7-A5/GpH7-B3 variant A330_14T/GpL16-k0 (antibody, human IgG1, kappa)
heavy 1: not shown
heavy 2: not shown
light: B1 light
notes: heterodimerized; also called He Ab A330_14T
B29: GpH7-A5/GpH7-B3 variant A327_07I/GpL16-k0 (antibody, human IgG1, kappa)
heavy 1: not shown
heavy 2: not shown
light: B1 light
notes: heterodimerized; also called He Ab A327_07I
B30: GpH7-A5/GpH7-B3 variant E269_20W/GpL16-k0 (antibody, human IgG1, kappa)
heavy 1: not shown
heavy 2: not shown
light: B1 light
notes: heterodimerized; also called He Ab E269_20W

biological target: T1, FcγRIa (human, UniProt P12314 16-292); test: SPR; vs GpH7-B3/GpL16-k0=100
T1 construct: extracellular domain; also called FcgRI; CD64
T1 sequence (P12314 16-292): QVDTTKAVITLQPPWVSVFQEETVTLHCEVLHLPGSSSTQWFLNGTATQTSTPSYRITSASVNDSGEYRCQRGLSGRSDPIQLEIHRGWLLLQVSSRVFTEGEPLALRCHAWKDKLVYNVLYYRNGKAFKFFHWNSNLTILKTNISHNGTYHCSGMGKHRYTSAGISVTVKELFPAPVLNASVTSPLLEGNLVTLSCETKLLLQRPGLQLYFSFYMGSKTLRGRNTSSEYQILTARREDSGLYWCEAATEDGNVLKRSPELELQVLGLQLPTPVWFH

Binder | Ho/Con_1a
B1 | 98.9 % of control
B2 | 100 % of control
B3 | 104 % of control
B4 | 99.9 % of control
B5 | 91.8 % of control
B6 | 102 % of control
B7 | 97.9 % of control
B8 | 101 % of control
B9 | 100 % of control
B10 | 99.3 % of control
B11 | 102 % of control
B12 | 98.7 % of control
B13 | 102 % of control
B14 | 99 % of control
B15 | 101 % of control
B16 | 101 % of control
B17 | 102 % of control
B18 | 101 % of control
B19 | 98.6 % of control
B20 | 100 % of control
B21 | 102 % of control
B22 | 99.2 % of control

biological target: T1, FcγRIa; test: SPR; vs GpH7-A5/GpH7-B3/GpL16-k0=100

Binder | He/Con_1a
B23 | 103 % of control
B24 | 103 % of control
B25 | 103 % of control
B26 | 102 % of control
B27 | 102 % of control
B28 | 105 % of control
B29 | 104 % of control
B30 | 105 % of control
